Measurements from patent US20240026407A1, “MODIFICATION OF SAPONINS” (GLAXOSMITHKLINE BIOLOGICALS SA, priority 2020, published 2024).

B1: 805 (protein)
chain: MLDIEKLIDEMTLEEKAGLCSGDDMWHTKAVERLGIPRIKMSDGPHGMRTFDDNGKVIPAVCFPTGSALAASFDTELVERVGAAIGEAAKTNGVHTVLGPAVNMKRSPLCGRNFEYLSEDPYLAGKLGSAMVRGIQSKGVGACPKHFAVNNQETRRMSVSADLSERTLREVYLPAFETIVKESSPHTMMCAYNRINGTYASENEHLLDEILRKEWGYQGIVMTDWSAMNRRPRALQAGLELEMPSSAGVNDEKIVEAVKAGDLSIEVLDEAVRRLLTWINAELQGRTESVCDLGVQRELAREAAGKSAVLLKNDDVLPLRKGDKIAFIGGFADKPRFEGGGSSHVSVEHMVNAIDAAKDIPNITYTEGFNTDDALSDYELVAEAVRIASEADVAVIFAGLPAAFESEGHDRTTLEIPESQNKLIAAISAVQPKTVVVFHGGSPVYMPWRKDVAAILYMYLGGQEVGSASVDLLFGDRNPSGKLAETFPLKLEDTPCYMNFPGDGNNAEYSEGIYIGYRWYDKRKIAVEYPFGFGMSYSDFIYRQIRSANSRITDTDTLKIYVDVQNRGEYAGEEIVQLYVQPSKARQGVRPVKELKGFKKMMIAPGETKTVCFELDKRSFAEYKPEISGWYAATGEYTILAGGSSDNLPLQVKVYVESTDTIPLVYNDYTTIGDLWDSGLDVNEVLDALDAKQTDLSALGLPADKMDRAIHMEEVKRGMPIHAVISMGGRDMNKIYQALLKVDGLEGKENIPL
modifications: uncultured Clostridium sp.
B2: 840 (protein, listed as Hungatella hathewayi)
chain: MNKKIKEILNSLTLEEKASLCSGVGLWQTRPLEDKGIPEIWMADGSNGVRIMKPVNQERKQDTSDFLKVTDLTQNSPTITNQYEAVCYPSGASLASTWDTELIEEMGEALGDECRYFKVNLLLAPGINIKRSPLGGRGYEYYSEDPYLTGKVAESFIKGVQKTGTGTSIKHFAANNAETLRINMSSDVDERALREIYLAPFEIGVKNAKPWTVMSSYNKVNGVQMAENRELLTDILRDEWGFNGVVVSDWGGVKDRIKALEAGNDLDMPENQRSNQSVVDAVRRGILSEAVLDQSVERILELVFKAKEQERFTDDMDFESHRNLSRKVAEESVVLLKNEKGLLPITKEKYKKVAVIGAFAREPRYQGGGCTLVNPIRISRPYEEMEKLAGKNIELTYAKGYELKDETSDELIHEAEEAAREADIAVIFGGLWVAYDREGFDRKHLEIDSSHIRLIEAVSRVQKRVVVVLSNGDAVVMSPWLDHVGAVVEQFLVGETVGEALARVLFGEVNPSGKLPVTFPKRLEDTSAYPYFPGECSHHVYGEGIFVGYRYFDKKKIEPLFPFGYGISYTTFQYSAIRADRSQMKDTDTVTVSVDVTNTGCVKGKEIVQIYVSDEKSRLKRPEKELKAFGKVELEPGETKTLTFTLGYRDFAYYDPEASDWVVEEGIFHIHAAANAGDIRQSIPVEVTEAKKKFRRLYLDSQHTAVFEHPMAKKMYLDFLVETGVIAADRVEAMAPLLKGNYMGIYNVVTSLLGGNVTKEEMQAVLDRINEVCKDNRPAE
B3: 819 (protein)
chain: MTTVHPDDYADRASELVAAMTLDEKASLTSGADFWNLKTVERLGLGAVMVTDGPHGLRKATNDAEIGIGQAVPATCFPTAAALGSTWDDELLEQVGAALGEEARAAGVAVVLGPGVNMKRSPLCGRNFEYFSEDPLVAGRAGAAMVRGVQSQGVGTSVKHFAANSQETDRMRIDARIGERALREIYLPAFERIVTQTRPWTVMCAYNKVNGTYASQHPWLLTTVLREDWGFGGLVVSDWGAVDQRVPGLAAGLDLEMPASGGVTDEQIARAVRTGELDEAVLDRAVQRIVALILAAQAVEPGTGFDTDAHHELARKAAAAGAVLLRNEPVDGSPVLPLDARDITGQAPLVVIGEFARTPRYQGAGSSQINPTRLDSALDALREQLGGAVRFEPGYRLAEATGMPGQELTDDELADRAVEAARGATVVLFAGLPAAVESEGYDRDDIELPNAQTTLIERVSAVAARTTVVLSNGSVVSVASWREKVDALLECWLGGQGGGSATADVLLGRSCPGGHLAESIPLALSDVPAQLNFPGSHSRVDHGEGVFVGYRGLDTMGREVAYPFGFGLTYTTFELTGVQATPVVTVADGTGLDETVAVVRGTLTNTGQRTGAQVVQLYLGRHEASRVARAPRELRGYEKITLAPGQSAPFEFALSRRDLSYWDEGTGCWQVEPGAYRAWVGFSSRDAAAVLPLQVTAPEPASPLGKDSTYAEWMAHPVGGPLLRTDARAFVDDMASSGAYELFAAMPLERLVRLPGSLLAPEDYLTLLDRAQAGQD
modifications: Propionibacterium australiense
B4: 817 (protein, listed as Pseudonocardia sp.)
chain: MAHVDEELLGTLIATLDLERKVRLLTGADFWSTPAEPAIGLRRMVLSDGPSGVRGESFDEREPSLSLPSSSALGATWDPAAARRYGSALGAEARRQHADAVLGPTINLHRTPYGGRHFEALSEDPLLTAELAAAYVEGLQAHGVAATPKHYVANDAETERFSVDNRVGDRALRELYLAAFEPVVTRAGAWAVMSAYNAVNGTTMSENPLLAEPLTGEWGFDGLVMSDWGGARSTEASARAEQHLVMPGPVSAWGARLVEAVRDGRVGEDVIDGKVRRLLRLAARVGALDGVPPQVTEPPPAEDGAAVARELAAAGSVLVRNTRADGAAELPWDHAVPGSVAVLGHNAALARTQGGGSATVRPAAVVSPLDGLRAALGADRVRYRLGAQVAEGVQPFDPASITNPVTGGSGLRAVFRDVGGAALRTEDRLSSSLIWMGAEIPEGTDHVEIALRWDAPAGAHRLGAAAVGHVVLVAGGTTVLDADGVLTGDEGPGAAIFEAPSVTAGVTTDGPVDLVLRFRPSGQEAGMPLVAVTVGEETVVDDPDAEIAAAAALAAGTDVAVVVVGTNDRIESEGFDRSTLALPGRQDDLVRAVAAANPRTVVVVNSGAPVLLPWRDEVAAILLGWFGGEQFGEAVADVLLGAAEPGGRLPTTWPGTGRERSVLSGVPSDGVLRYDEGVHAGHRNWLRHGETPAYPFGHGLGYTTWTLDGMSVGRWSADGIDVTVTLTNIGDRPGRQVVQAYLSRDRSDVERPARWLAGWAVVDAAPGTTTVTVPVSRRAFRHRTGTGWATEPGTWTLHLGFSVTDTPLAAEVTTT
B5: 876 (protein, listed as Pyrenochaeta sp.)
chain: MQLSEMALTGVEVDATDVEYILKQMSLDEKIQMLAAKNVWETPEIERVGIPSLKVTDGPNGARGGSFFDGTTAACFPASVSLAATFSRELSRQIGTALGQEAITKGAYAVLGPTVCCHRSPLGGRNFEAFSEDPYLSGTLASEYVQGLQQERVAATVKHFLANEQDTRRFSINQTISERALREIYLKPFEMVVKEAKPWCFMSSYPKINGKHVDAQSLFLEDILRKEWSYDGLVMSDWGATSTVESVSYGLDLEMPGPPRFRTPEAVHQALLKGTVSESDIDARVLTTLKLLERVGKFADRRDTPKETAVDRPEHRELIRKAGSEGIVLLKNDRGILPIDVTKTKKVALLGPLAKYAAAHGGGSASLNCHYKVSPFDAFKDRLSEDVEIAHSKGAHIFRVYPDLEEGCLNARQRPGFLAEYFMTSRVTEEPFLVEQFPRGSFTTLMNTRATGCKTVRFTTTYSPVTPGAHYLSFSGLGPSKFYINDELVAHQTESTKDAMGFLLGVQEEIRTQFVFEVGKEYNIVVETHPSPTSNAELYLLDNQCSVHLGLISQEEMEQDVLAEAVSLAKDADLAIVFVGNTTQWETEGQDLESMSLPANGSQDDLIVRVAAANPNTIVVNTTGVPVELPWIDSVPAFLQAWYAGQETGNAILDVLLGTTCPSGKLPISWPKKYEHTGCFGNFGLDSFESRQVDYVEGVFVGYRWFDNLWGGEKEVRFPFGFGLSYTTFEITGTSIKGSLSNDAHHVLRVSIKVKNVGKCLGAEIVQVYLKPPVTEGLERPQKTLAGFEKIELRVGEEREVHIAIGKENAAFWDENLSKWRVSTGVYEVLVATSSHPRDCRAVLETVVEDEFIFKA
B6: 854 (protein, listed as Corynespora cassiicola)
chain: MAQESGTVHDDESLQALVGQMTLEEKIKMLSAKNVWETPEIDRLGIPSLKVTDGPNGARGGSFFDGTTAACFPSCVSLAATFNRSLSRQVGKALEQEAITKGAYVLLGPTVCCHRSPLGGRNFEAFSEDPYLSGALASEYVKGLQEERVAATVKHFLANEQDTRRFSVNEKISERALREIYLRPFEMVAKEADPWCFMSSYPKINGAHVDAQSKFLVDILRKEWGYKGLIMSDWGATSTPESVRYGLDLETPGPPRWRTTDAVTKCLADGHIEESDIDARVLATLRLLKKVGKFDDRKTTPPEQAIDRPEHRALIRKAGGEGIVLLKNNGNLLPIDTRKTKKIALLGPLAKYAAAHGGGSASLNCHYKISPYDAFVARLGGDVEITHSKGAHIFRVYPDLEASCTNARGNSGFLAEYFMSSSTTEKPFWTEEFPRGSVTTLMNTKVIGCKTLKFTTTYQPPVSGSHYLSFSGLGPSQLFINDMLVAEQKEPTKDAMGFLLGVQEEVRIQYPFSSTQSYAISMVTHPSPFSNAELYLMENQCAIHIGFIAQEEIEHDVLSEAVDLASSADLAIVFVGNTIQWETEGQDLETMTLPADGSQDNLISQVVAANPNTIVVNTTGVPVELPWVDSVPALLQAWYAGQECGNAILDVLLGEVSPSGKLPISWPKKYEHTGCYGHFGLDSFESREVEYVEGVYVGYRWFDQWWGQDKEVRFPFGFGLSYTEFDISDARISGAISGDESSQVKVSANIRNIGDRFGAETVQIYVQPPALADLGRPLKDLVGFVKVELKPGETRDITVCFQKDNVSFWNEKANQWRVCRGTYNVLIATSSDPKDAKQALRFEVEEDLDFDP

Experiment: Experiment 5-2: screening of additional glucosidases for deglycosylation with QS-18 in crude bark extract (80%) at pH 6 and 35 deg C
Assay type: biochemical, Quillaja saponaria
Settings: CBE 80%, pH 6, 35 deg C, 18 hours; UV HPLC
In short: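 Deglycosylation of QS-18 was monitored by UV HPLC after MeCN/AcOH quench with hexanophenone. The reaction ran 18 hours at 35 deg C, shaking, combining clarified pH 6 lysate with crude bark extract neutralised to pH 6 by NaOH.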

| Molecule | Experiment 5-2 % conv [%] |
| --- | --- |
| B1 | <0.5 |
| B2 | <0.5 |
| B3 | <0.5 |
| B4 | <0.5 |
| B5 | <0.5 |
| B6 | <0.5 |

Experiment: Experiment 5-1: screening of additional glucosidases for deglycosylation with purified QS-18 (0.04 mg/ml) at pH 7.5 and 30 deg C
Assay type: biochemical, Quillaja saponaria
Settings: pH 7.5, 30 degrees C, 18 hours, LCMS/MS
Procedure: The 94 additional genes, together with positive control (DNA encoding SEQ ID No. 262) and negative control, were transformed, expressed, lysed and reacted in the same manner as described above for Experiment 4-1, except the reaction was incubated at 30 degrees C. for 18 hours.
Samples were analysed by LCMS/MS according to the procedure in Experiment 4-1.

| Molecule | Experiment 5-1 % conv [%] |
| --- | --- |
| B1 | 3.8 |
| B2 | 3.5 |
| B3 | 3.2 |
| B4 | 3.5 |
| B5 | 3.1 |
| B6 | 3.7 |

Experiment: Experiment 5-3: screening of additional glucosidases for deglycosylation with QS-18 in treated bark extract (80%) at pH 6 and 35 deg C
Assay type: biochemical, Quillaja saponaria
Settings: TBE 80% (QS-21 approx. 4 g/L), pH 6, 35 deg C; UV HPLC
Procedure: Experiment 5-1 was repeated, replacing CBE with Treated Bark Extract (TBE) at pH 6. TBE was prepared from CBE by PVPP treatment and concentration, to provide TBE with a QS-21 concentration of approximately 4 g/L. TBE was adjusted to pH 6 by dropwise addition of 2M NaOH with stirring.

| Molecule | Experiment 5-3 % conv [%] |
| --- | --- |
| B1 | <0.5 |
| B2 | <0.5 |
| B3 | <0.5 |
| B4 | <0.5 |
| B5 | <0.5 |
| B6 | <0.5 |
